For this test, the target named is Fat (Ft), full-length (pAct-ft) (Drosophila) (UniProt P33450). In words: cell aggregation assay; S2 cells transfected with ft mixed with S2 cells transfected with ds (one set cotransfected with pMK33B fj forms, with or without CuSO4 for 16 hr); rotated 100 rpm 2 hr, immunolabelled; percent of ft-expressing cells binding to ds-expressing cells counted.
Chain of UniProt P33450 (P33450 36-5147): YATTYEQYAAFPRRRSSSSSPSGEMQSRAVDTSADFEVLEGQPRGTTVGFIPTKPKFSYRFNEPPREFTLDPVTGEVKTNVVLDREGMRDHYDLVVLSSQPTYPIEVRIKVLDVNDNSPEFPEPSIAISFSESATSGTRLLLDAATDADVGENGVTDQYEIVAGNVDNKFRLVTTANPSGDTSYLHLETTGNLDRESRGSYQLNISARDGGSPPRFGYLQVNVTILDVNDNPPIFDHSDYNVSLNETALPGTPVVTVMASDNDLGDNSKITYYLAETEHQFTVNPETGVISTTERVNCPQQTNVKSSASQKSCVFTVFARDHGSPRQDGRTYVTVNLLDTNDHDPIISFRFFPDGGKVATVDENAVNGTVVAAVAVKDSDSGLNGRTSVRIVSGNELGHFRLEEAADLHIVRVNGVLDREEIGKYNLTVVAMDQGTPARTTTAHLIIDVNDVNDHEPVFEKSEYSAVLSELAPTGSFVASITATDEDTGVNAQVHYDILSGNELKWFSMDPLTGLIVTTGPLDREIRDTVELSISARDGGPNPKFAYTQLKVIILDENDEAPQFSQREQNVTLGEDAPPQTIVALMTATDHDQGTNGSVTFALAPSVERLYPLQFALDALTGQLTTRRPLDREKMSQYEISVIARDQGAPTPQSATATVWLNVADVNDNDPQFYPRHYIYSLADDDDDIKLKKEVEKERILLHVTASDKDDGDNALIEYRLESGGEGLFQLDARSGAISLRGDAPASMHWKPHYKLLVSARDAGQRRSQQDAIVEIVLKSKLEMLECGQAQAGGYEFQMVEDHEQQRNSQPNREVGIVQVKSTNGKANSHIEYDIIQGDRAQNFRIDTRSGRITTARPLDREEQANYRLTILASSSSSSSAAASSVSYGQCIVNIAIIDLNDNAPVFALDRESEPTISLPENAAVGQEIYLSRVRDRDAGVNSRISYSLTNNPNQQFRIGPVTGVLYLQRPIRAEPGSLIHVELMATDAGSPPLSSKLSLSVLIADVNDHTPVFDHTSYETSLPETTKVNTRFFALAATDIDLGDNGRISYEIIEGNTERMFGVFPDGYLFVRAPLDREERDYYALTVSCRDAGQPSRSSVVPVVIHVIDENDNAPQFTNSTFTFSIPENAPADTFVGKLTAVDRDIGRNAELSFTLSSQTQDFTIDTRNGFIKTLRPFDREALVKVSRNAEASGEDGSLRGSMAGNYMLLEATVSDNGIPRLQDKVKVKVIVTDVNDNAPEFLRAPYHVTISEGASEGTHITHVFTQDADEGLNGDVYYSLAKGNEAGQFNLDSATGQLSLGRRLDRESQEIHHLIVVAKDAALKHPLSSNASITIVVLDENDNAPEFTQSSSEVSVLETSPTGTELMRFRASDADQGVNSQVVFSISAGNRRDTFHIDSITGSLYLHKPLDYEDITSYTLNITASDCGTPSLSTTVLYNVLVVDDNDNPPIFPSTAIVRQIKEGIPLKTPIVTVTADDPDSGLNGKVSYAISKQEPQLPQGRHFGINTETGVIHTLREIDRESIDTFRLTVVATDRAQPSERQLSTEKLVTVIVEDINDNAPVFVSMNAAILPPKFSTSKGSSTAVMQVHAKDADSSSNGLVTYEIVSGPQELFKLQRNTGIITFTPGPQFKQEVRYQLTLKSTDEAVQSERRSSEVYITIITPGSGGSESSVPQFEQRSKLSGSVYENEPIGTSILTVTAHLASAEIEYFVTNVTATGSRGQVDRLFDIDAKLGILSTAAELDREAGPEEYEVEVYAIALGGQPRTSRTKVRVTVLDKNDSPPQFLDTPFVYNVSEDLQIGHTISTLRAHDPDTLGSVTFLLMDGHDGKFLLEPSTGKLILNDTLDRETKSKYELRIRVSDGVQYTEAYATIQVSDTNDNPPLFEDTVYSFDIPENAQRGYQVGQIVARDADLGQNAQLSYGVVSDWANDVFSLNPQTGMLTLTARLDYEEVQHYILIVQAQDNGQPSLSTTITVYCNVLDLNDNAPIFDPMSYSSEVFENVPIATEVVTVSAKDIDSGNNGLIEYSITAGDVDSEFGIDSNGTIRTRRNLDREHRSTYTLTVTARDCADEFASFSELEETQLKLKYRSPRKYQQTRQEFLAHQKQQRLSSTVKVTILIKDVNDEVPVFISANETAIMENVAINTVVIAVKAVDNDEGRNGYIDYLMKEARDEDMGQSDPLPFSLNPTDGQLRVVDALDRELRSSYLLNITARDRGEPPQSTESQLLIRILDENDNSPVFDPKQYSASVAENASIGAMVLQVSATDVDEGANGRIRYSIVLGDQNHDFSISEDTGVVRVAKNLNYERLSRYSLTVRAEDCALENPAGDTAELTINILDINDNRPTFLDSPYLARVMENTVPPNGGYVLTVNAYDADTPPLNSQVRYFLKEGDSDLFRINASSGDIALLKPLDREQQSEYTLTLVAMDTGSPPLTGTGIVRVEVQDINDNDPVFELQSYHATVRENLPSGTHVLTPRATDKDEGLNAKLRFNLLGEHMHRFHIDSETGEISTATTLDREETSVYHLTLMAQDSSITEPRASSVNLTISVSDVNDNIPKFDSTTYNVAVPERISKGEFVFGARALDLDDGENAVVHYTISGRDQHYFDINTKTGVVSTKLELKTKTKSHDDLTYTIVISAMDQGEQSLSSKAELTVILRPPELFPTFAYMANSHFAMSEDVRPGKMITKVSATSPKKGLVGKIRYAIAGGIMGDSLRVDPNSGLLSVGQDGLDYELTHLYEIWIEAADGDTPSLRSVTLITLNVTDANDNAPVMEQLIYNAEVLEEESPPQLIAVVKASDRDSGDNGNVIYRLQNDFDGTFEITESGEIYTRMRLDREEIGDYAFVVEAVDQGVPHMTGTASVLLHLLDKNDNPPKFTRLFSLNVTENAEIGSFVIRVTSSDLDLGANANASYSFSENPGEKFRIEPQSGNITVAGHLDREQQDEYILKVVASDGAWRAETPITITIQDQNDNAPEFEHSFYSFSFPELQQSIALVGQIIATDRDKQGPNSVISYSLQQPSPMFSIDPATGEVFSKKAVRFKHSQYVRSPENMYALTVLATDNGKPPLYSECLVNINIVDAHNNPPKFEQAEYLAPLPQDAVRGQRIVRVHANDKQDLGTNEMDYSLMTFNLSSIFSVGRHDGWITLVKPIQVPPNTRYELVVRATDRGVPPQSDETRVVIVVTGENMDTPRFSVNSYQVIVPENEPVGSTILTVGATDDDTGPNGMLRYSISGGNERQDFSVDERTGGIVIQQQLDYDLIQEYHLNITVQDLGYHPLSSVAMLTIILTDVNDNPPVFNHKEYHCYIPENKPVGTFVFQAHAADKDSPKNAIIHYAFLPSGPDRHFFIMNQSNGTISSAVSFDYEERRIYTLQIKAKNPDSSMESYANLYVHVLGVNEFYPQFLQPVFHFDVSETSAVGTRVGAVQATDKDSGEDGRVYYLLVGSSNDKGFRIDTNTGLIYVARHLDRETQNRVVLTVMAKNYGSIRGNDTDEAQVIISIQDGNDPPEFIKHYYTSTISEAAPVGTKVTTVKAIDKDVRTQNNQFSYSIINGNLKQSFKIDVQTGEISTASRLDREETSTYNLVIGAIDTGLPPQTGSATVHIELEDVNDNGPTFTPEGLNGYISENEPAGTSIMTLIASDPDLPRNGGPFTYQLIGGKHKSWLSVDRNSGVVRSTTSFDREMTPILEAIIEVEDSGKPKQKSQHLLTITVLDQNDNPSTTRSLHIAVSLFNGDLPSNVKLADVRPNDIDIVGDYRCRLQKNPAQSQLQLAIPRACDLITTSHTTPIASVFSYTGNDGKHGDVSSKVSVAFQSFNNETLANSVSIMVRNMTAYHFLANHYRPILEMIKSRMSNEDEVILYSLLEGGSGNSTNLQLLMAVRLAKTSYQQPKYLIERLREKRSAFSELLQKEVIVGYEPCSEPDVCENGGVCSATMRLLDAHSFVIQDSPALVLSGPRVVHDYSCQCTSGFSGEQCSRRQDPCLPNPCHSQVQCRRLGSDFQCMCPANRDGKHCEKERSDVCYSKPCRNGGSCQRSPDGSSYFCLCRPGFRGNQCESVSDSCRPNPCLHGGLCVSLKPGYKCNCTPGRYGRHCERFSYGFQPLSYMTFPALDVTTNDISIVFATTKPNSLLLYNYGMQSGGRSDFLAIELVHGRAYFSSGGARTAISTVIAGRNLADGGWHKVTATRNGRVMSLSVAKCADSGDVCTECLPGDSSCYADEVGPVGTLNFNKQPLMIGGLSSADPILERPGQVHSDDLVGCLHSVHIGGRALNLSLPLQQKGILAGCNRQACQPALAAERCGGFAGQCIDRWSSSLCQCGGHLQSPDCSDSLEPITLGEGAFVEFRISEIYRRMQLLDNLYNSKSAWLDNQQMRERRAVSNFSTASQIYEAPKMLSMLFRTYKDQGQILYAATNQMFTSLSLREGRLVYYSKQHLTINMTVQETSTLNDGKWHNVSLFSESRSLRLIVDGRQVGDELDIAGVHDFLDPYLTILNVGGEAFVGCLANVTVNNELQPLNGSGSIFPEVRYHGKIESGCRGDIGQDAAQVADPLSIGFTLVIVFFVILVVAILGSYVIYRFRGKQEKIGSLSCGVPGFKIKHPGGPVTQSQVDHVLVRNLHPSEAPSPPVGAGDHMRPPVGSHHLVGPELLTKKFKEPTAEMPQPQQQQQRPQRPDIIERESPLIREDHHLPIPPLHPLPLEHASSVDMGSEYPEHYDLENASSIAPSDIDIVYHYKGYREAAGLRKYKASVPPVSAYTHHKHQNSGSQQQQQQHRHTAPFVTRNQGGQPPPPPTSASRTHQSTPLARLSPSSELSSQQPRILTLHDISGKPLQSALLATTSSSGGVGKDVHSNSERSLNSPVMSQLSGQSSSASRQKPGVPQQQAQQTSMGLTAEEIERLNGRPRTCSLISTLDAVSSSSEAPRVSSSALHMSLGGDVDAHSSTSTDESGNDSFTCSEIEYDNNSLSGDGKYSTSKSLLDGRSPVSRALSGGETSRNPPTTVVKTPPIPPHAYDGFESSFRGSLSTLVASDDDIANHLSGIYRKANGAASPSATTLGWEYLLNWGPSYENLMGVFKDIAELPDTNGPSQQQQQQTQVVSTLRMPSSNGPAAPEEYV

“Dachsous (Ds), untagged form, coexpressed with Fj or GNT-Fj (phosphorylated by Fj) (receptor)”: the reduction of binding against the same cells without Fj induction is 40%.

The record behind these values is article PMC2958304.
